We go through 40 sequences from the nanobody polyreactivity screen of Harvey et al. (2022).

The nature of the data set: yeast display, Sf9 membrane polyspecificity reagent, FACS + sequencing; frameworks hold sequencing errors. In outline: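 Using colony PCR, genes from sorted yeast display clones were amplified, then sequenced on MiSeq at 2 × 250 and filtered by CDR length. The clones had been stained with 10% biotinylated, detergent-solubilized Sf9 membrane reagent for 1 hour at 4 °C and sorted by FACS into low and high (top ~1%) gates on anti-HA and streptavidin fluorescence. Polyreactivity labels come from the gate of origin.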
For “QVQLVESGGGLVQAGGSLRLSCAASGGTFRYNAMGWYRQAPGKERELVAAIRWSGGRTYYADSVKGRFTISRDNAKNTVFLQINSLKPEDTAVYYCAALYRGYAVAASYYLWGLGTQVTVSS”, the “polyreactivity (PSR sort gate)” value is on record as “high polyreactivity”.

Consider “QVQLVESGGGLVQAGGSLRLSCAASGGTFRYYAMAWYRQAPGKERELVARIRYNGGSTYYADSVKGRFTISRDNAQYTVYLQMNSLKPEDTAVYYCAGRRTGGMGYWGQGTQVTVSS”, for which the “polyreactivity (PSR sort gate)” value was “high polyreactivity”. As to “QVQLVESGGGLVQAGGSLRLSCAASGGTFRYYAMGWYRQAPGKERELVATINWSGGSTYADSVKGRFTISRDNAKNTVYLQMNSLKPEDTAVYYCNAGWWIPVYYWDEWYIYNYWGQGTQVTVSS”, the “polyreactivity (PSR sort gate)” value is given as “high polyreactivity”. Under “QVQLVESGGGLVQAGGSLRLSCAASGGTFSKNAMGWYRQAPGKEREFVAAISSTGGDTTYYADSVKGRFTISRDNAKNTVYLQMNSLKPEDTAVYYCNADYIFWPWYDYWGQGTQVTVSS” stands “low polyreactivity”; under “QVQLVESGGGLVQAGGSLRLSCAASGGTFSKYAMGWYRQAPGKEREFVAAITVSGGGTYYADSVKGRFTISRDNAKNPVYLQMNSLKPEDTAVYYCAADLAWTASDYWGHGTQVTVSS”, “low polyreactivity”. For “QVQLVESGGGLVQAGGSLRLSCAASGGTFSKYAMGWYRQAPGKEREFVAAITVSGGGTYYADSVKGRFTISRDNAKNTVYLQMNSLKPEDTAVYYCAADLGWTASDYWGQGTQVTVSS”, the “polyreactivity (PSR sort gate)” value is recorded as “low polyreactivity”. Take “QVQLVESGGGLVQAGGSLRLSCAASGGTFSPYDMGWYRQAPGKERELFASITGSGGSTYYADSVKGRFTISRDNAKNTVYLQMNSLKPVDTAVYDCATQPLTWSSYRWDWRAQFDHWGQGTQVTVSS”: the “polyreactivity (PSR sort gate)” value is recorded as “low polyreactivity”. As to “QVQLVESGGGLVQAGGSLRLSCAASGGTFSRYVMGWYRQAPGKERELVAAITRSGSTNYADSVKGRFTISRDNAKNTVYLQMNSLKPEDTAVYYCATDKRGRIGGTFDYWGQGTQVTVSS”, the “polyreactivity (PSR sort gate)” value is listed as “low polyreactivity”. Under “QVQLVESGGGLVQAGGSLRLSCAASGGTFSTYTMGCYRQAPGKERELVAGISGRGGSTRYADSVKGRFTISRDNAKNTVYLQMNSLKPEDTAVYYCNARKRSYWGIVFVGLYDYWGQGTQVTVSS” stands “high polyreactivity”; under “QVQLVESGGGLVQAGGSLRLSCAASGGTFSYYAMGWYRQAPGKERELVAAISKRGGSTYYADSVKGRFTISRDNAKNTVYLQMNSLKPEDTAVYYCARGYSWSVGYPRVQDMDYWGQGTQVTVSS”, “high polyreactivity”; under “QVQLVESGGGLVQAGGSLRLSCAASGGTFTPYDMGWYRQAPGKERELVASITGSGGSTYYADSVKGRFTISRGNAKNTVYLQMNSLKPEDTAVYYCAAQGYWTYWPYLLRLYDYWGQGTQVTVSS”, “low polyreactivity”. As to “QVQLVESGGGLVQAGGSLRLSCAASGGTFTSNAMGWYRQAPGKERELVAAISSRGGTYYADSVKGRFTISRDNAKNTVYVQMNSLKPEDTAVYYCAARGYLYSWNVSHTYDYWGQGTQVTVSS”, the “polyreactivity (PSR sort gate)” value is reported as “high polyreactivity”. “QVQLVESGGGLVQAGGSLRLSCAASGGTFVGYAMGWYRQAPGKEREFVAAISGSGGSTYYADSVKGRFTISRDNAKNTVYLQMNSLKPEDTAVYYCAARAVSRRFDYWGQGTQVTVSS”: the “polyreactivity (PSR sort gate)” value is on record as “high polyreactivity”. Regarding “QVQLVESGGGLVQAGGSLRLSCAASGGTFVGYAMGWYRQAPGKERELVAAINSSGGRTYYADSVKGRFTISRDNAKNTVYLQMNSLKPEDTAVYYCAKPRTYHKDKYDYWGQGTQVTVSS”, the “polyreactivity (PSR sort gate)” value is listed as “high polyreactivity”. On to “QVQLVESGGGLVQAGGSLRLSCAASGGTFVHNAMGWYRQAPGKERELVAAISWSGGSTYYADSVKGRFTISRDNAKNTVYLQMNSLKPEDTAVYYCAADLPDYKDIFDSWGQGTQVTVSS”, for which the “polyreactivity (PSR sort gate)” value is on record as “low polyreactivity”.

For “QVQLVESGGGLVQAGGSLRLSCAASGGTFVQYVMGWYRPAPGKERELVAAISASGGRTYYADSVKGRFTISRDNAKNSVYLQMNSLKPEDTAVDYCAAERKGSVTYEYDYWGQGTQVSVSS”, the “polyreactivity (PSR sort gate)” value is given as “high polyreactivity”. Under “QVQLVESGGGLVQAGGSLRLSCAASGGTFVRNTMGWSRQAPGKERELVAGITKNGGSTYYADSVKGRFTISRDNAKNTVYLQMNSLKPEVTAVYYCAIYVSWPLYYYWGQGTQVTVSS” stands “low polyreactivity”. Consider “QVQLVESGGGLVQAGGSLRLSCAASGGTFVSYAMGWYRQAPGKERELVAAITYSGGSTYYADSVKGRFTISRDNAKNTVYLQMNSLKPEDTGVYYCAAPKFSYFSYSPRGKFKYEYWGQGTQVTVSS”, for which the “polyreactivity (PSR sort gate)” value is on record as “low polyreactivity”.

With “QVQLVESGGGLVQAGGSLRLSCAASGGTFWDYAMGWYRQAPGKERELVAAITYGTASTDYADSVKGRFTISRDNAKNTVYLQMNSLKPEDTAVYYCAARWNQYPYSYSTYDYWGQGTQVTVSS”, the “polyreactivity (PSR sort gate)” value is on record as “low polyreactivity”. “QVQLVESGGGLVQAGGSLRLSCAASGGTFWSYAMGCYRQAPGKEREFVAAITTSAGRTNYADSVKGRFTISRDNAKNTVYLQMNSLKPEDTAVYYCAARSAYPGLGYGFDYWGQGTQVTVSS”: the “polyreactivity (PSR sort gate)” value is “low polyreactivity”. For “QVQLVESGGGLVQAGGSLRLSCAASGGTFYANAMGWYRQAPGKERELVATITSSSGSTSYADSVKGRFTISRDNAKNTVYLQMNSLKPEDTAVYYCAKDSHAQGPYRYKHYHHTGDYWGQGTQVTVSS”, the “polyreactivity (PSR sort gate)” value is “low polyreactivity”. In the case of “QVQLVESGGGLVQAGGSLRLSCAASGGTFYDNDMGWYRQAPGKERELVATITYSGTSTYYADSVKGRFTISRDNAKNTVYLELNSLKTEDTAVYYCATDVLLYFEPVNLDYWGEGTQVTVSS”, the “polyreactivity (PSR sort gate)” value is “low polyreactivity”.

Take “QVQLVESGGGLVQAGGSLRLSCAASGGTFYGYAMGWYRQAPGKERELVAAINYRGGRTYYADSVKGRFTISRDNAKNTVYLQMNSLKPEDTAVYDCAATSDRLDGYDYWGQGTQVTVSS”: the “polyreactivity (PSR sort gate)” value was “high polyreactivity”. On to “QVQLVESGGGLVQAGGSLRLSCAASGGTFYIYVMGWYIQAPGKERELVAAITSGDSTNYADSVKGRFTISRDNAKNTVYLQMNSLKPEDTAVYYCATGYWELRYDYWGQGTQVTVSS”, for which the “polyreactivity (PSR sort gate)” value was “low polyreactivity”. “QVQLVESGGGLVQAGGSLRLSCAASGGTFYRYAMGWYRQAPGKERELVAAISSNGGSTYYADSVKGRFTISRDNAKNTVYLQMNSLKPEDTAVYYCAAARDSIVYGQYDYWGQGTQVTVSS”: the “polyreactivity (PSR sort gate)” value is reported as “low polyreactivity”. Take “QVQLVESGGGLVQAGGSLRLSCAASGGTFYRYAMGWYRQAPGKERELVAAISSSGGSTYYADSVKGRFTISRNNAKNTVYLQMNSLKPEDTAVYYCAAYSFQSHNFDYWGQGTQVTVSS”: the “polyreactivity (PSR sort gate)” value is on record as “high polyreactivity”. With “QVQLVESGGGLVQAGGSLRLSCAASGGTFYRYAMGWYRQAPGKERELVAAITDSGGSTYYADSVKGRFTISRDNAKNTVYLQMNSLKPEDTAVYYCAAEDIDYTDVTSGYEYWGQGTQVTVSS”, the “polyreactivity (PSR sort gate)” value is listed as “high polyreactivity”. The value for “QVQLVESGGGLVQAGGSLRLSCAASGGTFYSYAMGWYRQAPGKERELVAAISRRGGSTYYADSVKGRFTISRDNAKNTVYLQMNSLKPEDTAVYYCNTYIYQVRDDYWGQGTQVTVSS” was “high polyreactivity”; that for “QVQLVESGGGLVQAGGSLRLSCAASGGTFYTNVMGWYREAPGKERELVAAITRSGGSTHYADSVKGRFTISRDNAKNTVYLQMNSLKPEDTAVYYCAVGSPYYDGMDYWGQGTQVTVSS” was “low polyreactivity”; that for “QVQLVESGGGLVQAGGSLRLSCAASGGTFYTNVMGWYRQAPGKERELVAAITRSGGSTHYADSVKGRFTISRDNAKNTVYLQMNSLKPEDTAVYYCAKDRVGEMYYWGQGTQVTVSS” was “low polyreactivity”. On to “QVQLVESGGGLVQAGGSLRLSCAASGGTIAYAMGWYRQAPGKERELVAAISKHGGRTYYADSVKGRFTISRDNAKNTVYLQMNSLKPEDSAVYYCAADAFRGFYWGQGTQVTVSS”, for which the “polyreactivity (PSR sort gate)” value is on record as “high polyreactivity”. With “QVQLVESGGGLVQAGGSLRLSCAASGGTLASYAMGRYRQATGKERELVAAITRGGGSTHYADSVKGRFTISRDNAKNTVYLQMNSLKPADTAVYYCNARVRPGYGYWGQGTQVTVSS”, the “polyreactivity (PSR sort gate)” value is “high polyreactivity”.

“QVQLVESGGGLVQAGGSLRLSCAASGGTLAYYAMGWYRQAPGKERELVAAITRSGGSTYYADSVKGRFTISRDNAKNTVYLQMNSLKPEDTAVYYCAALLAYCKNRWHIEYDYWGQGTQVTVSS”: the “polyreactivity (PSR sort gate)” value is “low polyreactivity”. In the case of “QVQLVESGGGLVQAGGSLRLSCAASGGTLDVYAMGWYRQAPGKEREFVAAISWSGGRTYYADSVKGRFTISRDNAKNTVYLQMHSLKPEDTAVYYCATRDRAGYYYWGQGTQVTVSS”, the “polyreactivity (PSR sort gate)” value was “high polyreactivity”. For the sequence “QVQLVESGGGLVQAGGSLRLSCAASGGTLYTYAMGWYRQAPGKEWEFVAAITVSGGRTYYADSVKGRFPISRDNAKNTVYLQINSLKPEDTAVYYCAARYWSWRSFKVDYWGQGTQVTVSS”, the “polyreactivity (PSR sort gate)” value was “high polyreactivity”. As for “QVQLVESGGGLVQAGGSLRLSCAASGGTQVKYAMGWYRQAPGKERELVAAISRSTGNTYYADSVKGRFTISRDNAKNTVYLQMNSLKPEDTAVYYCAALKYTVGGKFGYWGQGTQVTVSS”, the “polyreactivity (PSR sort gate)” value is recorded as “high polyreactivity”. As to “QVQLVESGGGLVQAGGSLRLSCAASGGTRAHNAMGLYRQAPGKERELVAAISWRGGSTYYADSVKGRCTISRDNAKNTVYLQMNSLKPEDTAVYYCAKEQYVPDRPSFKNLNTYDYWGQGTQVTVSS”, the “polyreactivity (PSR sort gate)” value is listed as “low polyreactivity”. Regarding “QVQLVESGGGLVQAGGSLRLSCAASGHIFYAYAMGWYRQAPGKERELVASITYRGVSTYYADSVKGRFTISRDNAKNTVYLQMNSLKPEDTAVYYCAAGRSRYLWFGRDFDYWGQGTQVTVSS”, the “polyreactivity (PSR sort gate)” value is reported as “low polyreactivity”. Turning to “QVQLVESGGGLVQAGGSLRLSCAASGIFAYYAMGWYRQAPGKERELVAAISSSGGSTYYADSVKGRFTISRDNAKNTFYLQMNSLKPEDTAVYYCNVRNYYNDYYYWGQGTQVTVSS”, the “polyreactivity (PSR sort gate)” value is “high polyreactivity”. As to “QVQLVESGGGLVQAGGSLRLSCAASGIFDDNAMGWYRQAPGKEREFVAAITISDGTTYYADSVKGRFTISRDNAKNTVDLQMNSLKPEDTAVYYCAADATYFFVYPSVDWQPDIMGYWGQGTQVTVSS”, the “polyreactivity (PSR sort gate)” value is “low polyreactivity”.
